Data on two molecules can be found in US20240270857A1 (CHIA TAI TIANQING PHARMACEUTICAL GROUP, published 2024).

In this experiment the target is T1, cynomolgus IL-36R overexpressed on 293T-CynoIL36R-NFκB cells (cynomolgus monkey).
T1 chain: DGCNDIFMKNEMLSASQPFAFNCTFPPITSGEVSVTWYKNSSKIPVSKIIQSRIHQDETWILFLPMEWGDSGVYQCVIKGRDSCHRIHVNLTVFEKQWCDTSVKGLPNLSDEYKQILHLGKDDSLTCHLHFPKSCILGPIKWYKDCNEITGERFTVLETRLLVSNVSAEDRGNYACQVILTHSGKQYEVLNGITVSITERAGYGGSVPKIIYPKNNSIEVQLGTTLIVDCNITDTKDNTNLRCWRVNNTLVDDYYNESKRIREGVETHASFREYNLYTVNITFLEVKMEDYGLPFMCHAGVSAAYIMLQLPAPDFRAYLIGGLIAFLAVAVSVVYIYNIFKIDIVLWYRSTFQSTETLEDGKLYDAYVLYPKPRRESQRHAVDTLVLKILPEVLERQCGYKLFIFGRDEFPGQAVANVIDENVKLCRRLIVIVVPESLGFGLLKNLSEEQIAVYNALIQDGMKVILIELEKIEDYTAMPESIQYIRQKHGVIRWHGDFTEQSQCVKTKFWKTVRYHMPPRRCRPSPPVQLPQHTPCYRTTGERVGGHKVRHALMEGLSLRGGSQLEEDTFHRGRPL
As to the kind of experiment: cell-based or functional assay.

B1: chimeric 72C1 antibody (antibody, human IgG4 S228P, kappa)
heavy: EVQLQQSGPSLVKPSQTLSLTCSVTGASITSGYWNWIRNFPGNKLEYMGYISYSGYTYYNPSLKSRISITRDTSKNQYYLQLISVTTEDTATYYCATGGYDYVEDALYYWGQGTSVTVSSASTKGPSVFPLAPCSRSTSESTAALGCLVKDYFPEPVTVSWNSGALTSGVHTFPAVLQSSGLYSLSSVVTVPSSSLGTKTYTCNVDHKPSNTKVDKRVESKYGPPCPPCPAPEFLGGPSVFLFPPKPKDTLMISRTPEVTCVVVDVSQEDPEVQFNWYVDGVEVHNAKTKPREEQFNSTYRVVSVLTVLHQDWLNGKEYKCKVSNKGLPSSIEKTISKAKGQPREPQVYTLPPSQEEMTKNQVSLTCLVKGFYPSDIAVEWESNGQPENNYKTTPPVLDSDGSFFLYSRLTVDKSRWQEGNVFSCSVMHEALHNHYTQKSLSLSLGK
light: EILLTQSPAIMSATLGEKVTMSCRASSNVRYMYWYQLKSGASPKLWIYLTSNLASGVPARFSGSGSGTSYSLTISSVEAEDAATYFCQQFTTSPYTFGGGTKLEIKRTVAAPSVFIFPPSDEQLKSGTASVVCLLNNFYPREAKVQWKVDNALQSGNSQESVTEQDSKDSTYSLSSTLTLSKADYEKHKVYACEVTHQGLSSPVTKSFNRGEC
notes: Mouse variable regions on human IgG4 / kappa; also called xi72C1
Turning to B1, the “IC50; NFκB-luciferase reporter in 293T-CynoIL36R-NFκB cells stimulated with hIL36γ, inhibition rate %” value turned out to be 2.38 nM.

B2: BI655130 (antibody, human IgG1, kappa, L234A L235A)
heavy: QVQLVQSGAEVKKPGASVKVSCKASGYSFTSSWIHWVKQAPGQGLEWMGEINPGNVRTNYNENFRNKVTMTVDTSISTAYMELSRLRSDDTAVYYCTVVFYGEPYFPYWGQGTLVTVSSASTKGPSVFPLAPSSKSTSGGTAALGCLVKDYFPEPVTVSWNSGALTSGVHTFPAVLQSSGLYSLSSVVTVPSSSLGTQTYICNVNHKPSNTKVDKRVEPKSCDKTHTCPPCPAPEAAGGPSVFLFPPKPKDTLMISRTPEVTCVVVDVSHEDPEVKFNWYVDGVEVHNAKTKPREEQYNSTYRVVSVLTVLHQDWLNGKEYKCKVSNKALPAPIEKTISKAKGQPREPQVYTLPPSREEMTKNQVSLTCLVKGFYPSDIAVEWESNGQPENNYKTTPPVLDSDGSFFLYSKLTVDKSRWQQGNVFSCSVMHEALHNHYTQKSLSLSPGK
light: QIVLTQSPGTLSLSPGERATMTCTASSSVSSSYFHWYQQKPGQAPRLWIYRTSRLASGVPDRFSGSGSGTDFTLTISRLEPEDAATYYCHQFHRSPLTFGAGTKLEIKRTVAAPSVFIFPPSDEQLKSGTASVVCLLNNFYPREAKVQWKVDNALQSGNSQESVTEQDSKDSTYSLSSTLTLSKADYEKHKVYACEVTHQGLSSPVTKSFNRGEC
notes: also called Spesolimab
For B2, the “IC50; NFκB-luciferase reporter in 293T-CynoIL36R-NFκB cells stimulated with hIL36γ, inhibition rate %” value came out at 11.8 nM.
